Measured values from publication PMC3327674, “Structural and Functional Characterization of Mature Forms of Metalloprotease E495 from Arctic Sea-Ice Bacterium Pseudoalteromonas sp. SM495” (PLoS ONE, 2012).

What was measured:
[1] = target: GST-fused PPC1 domain of metalloprotease E495 (Pseudoalteromonas sp. SM495); assay: pull-down; GST-fused PPC domain (or mutant) attached to glutathione-agarose resin; 0.1 mg/ml CPC or casein added, 4°C, 12 h with shaking; substrate remaining in the supernatant analysed by 12.5% SDS-PAGE and ImageJ
[2] = target: GST-fused PPC12 (PPC1 and PPC2 domains) of metalloprotease E495 (Pseudoalteromonas sp. SM495); assay: as above
[3] = target: GST-fused PPC2 domain of metalloprotease E495 (Pseudoalteromonas sp. SM495); assay: as above
[4] = target: C-phycocyanin (Synechocystis sp. strain PCC6803) (UniProt Q54715); assay: SPR; BIACORE 3000, 25°C; CPC amine-coupled on a CM5 chip; PPC domains 0.25-8 µM at 30 µl/min; regeneration with 20 mM NaOH; global fits, BIAevaluation 4.1
C-phycocyanin (Synechocystis sp. strain PCC6803), sequence (Q54715 whole entry, chain 1 of 2, other chains not shown, the tested form may be a part): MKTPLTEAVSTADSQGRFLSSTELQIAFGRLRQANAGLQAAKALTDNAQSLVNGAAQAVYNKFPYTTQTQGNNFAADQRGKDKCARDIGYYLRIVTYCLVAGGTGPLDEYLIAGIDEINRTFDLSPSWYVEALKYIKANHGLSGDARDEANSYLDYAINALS

E495-M-C1 (mature form of metalloprotease E495 containing the catalytic domain and the PPC1 domain) (enzyme)
K m of α-casein hydrolysis at 50°C (non-linear fit, Michaelis-Menten) (alpha casein): 18 µM

E495-M (mature form of metalloprotease E495 containing only the catalytic domain) (enzyme)
K m of α-casein hydrolysis at 50°C (non-linear fit, Michaelis-Menten) (alpha casein): 67 µM

C-phycocyanin (from UniProt Q54715 1-162; Q54714 1-172) (complex)
percent bound [1]: 30%
percent bound [2]: 30%
percent bound [3]: 30%

GST-fused PPC2 domain of metalloprotease E495 (domain or fragment)
Kd [4]: 2470 nM
koff [4]: 0.0162 s⁻¹
kon [4]: 6560 M⁻¹ s⁻¹

GST-fused PPC1 domain of metalloprotease E495 (domain or fragment)
Kd [4]: 770 nM
koff [4]: 0.0158 s⁻¹
kon [4]: 20400 M⁻¹ s⁻¹

alpha casein (natural protein)
percent bound [1]: 30%
percent bound [2]: 30%
percent bound [3]: 30%
